Columns and labels:
hGITR.mmh = target: T1, hGITR.mmh (human); test: SPR 37C, mAb capture
T1 construct: soluble monomeric construct; also called human (h) GITR.mmh; monomeric human GITR
T1 chain: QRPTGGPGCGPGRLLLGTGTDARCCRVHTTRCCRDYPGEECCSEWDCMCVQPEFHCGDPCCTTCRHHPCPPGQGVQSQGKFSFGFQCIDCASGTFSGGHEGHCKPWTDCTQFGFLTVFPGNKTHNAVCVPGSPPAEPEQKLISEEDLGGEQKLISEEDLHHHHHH

hGITR.mFc = target: T2, hGITR.mFc (human); test: SPR 37C, mAb capture
T2 construct: soluble dimeric construct with mouse Fc; also called dimeric human GITR
T2 chain: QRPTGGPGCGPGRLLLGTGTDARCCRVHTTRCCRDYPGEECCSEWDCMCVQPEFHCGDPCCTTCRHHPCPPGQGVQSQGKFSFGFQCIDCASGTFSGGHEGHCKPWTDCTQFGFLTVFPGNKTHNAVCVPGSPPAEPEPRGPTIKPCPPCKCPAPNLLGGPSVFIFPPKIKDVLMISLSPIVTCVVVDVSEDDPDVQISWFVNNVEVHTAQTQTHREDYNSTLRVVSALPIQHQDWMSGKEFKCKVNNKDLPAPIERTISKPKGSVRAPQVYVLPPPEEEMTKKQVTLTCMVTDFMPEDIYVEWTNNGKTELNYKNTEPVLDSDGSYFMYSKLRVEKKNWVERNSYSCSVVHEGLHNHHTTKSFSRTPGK

mfGITR.mmh = target: T3, mfGITR.mmh (Macaca fasicularis); test: SPR 37C, mAb capture
T3 construct: soluble monomeric construct; also called Macaca fasicularis (mf) GITR.mmh; cynomolgus GITR protein
T3 chain: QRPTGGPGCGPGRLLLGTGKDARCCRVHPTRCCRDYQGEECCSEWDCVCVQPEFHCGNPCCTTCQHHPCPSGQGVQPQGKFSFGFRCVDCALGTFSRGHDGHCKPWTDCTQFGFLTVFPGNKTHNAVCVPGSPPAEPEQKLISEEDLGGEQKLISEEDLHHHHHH

[1] = target: T4, human GITR (amino acids M1-V241, NCBI Accession #NP_004186.1) expressed on cells (human, UniProt Q9Y5U5 26-241); test: cell-based or functional assay
T4 sequence: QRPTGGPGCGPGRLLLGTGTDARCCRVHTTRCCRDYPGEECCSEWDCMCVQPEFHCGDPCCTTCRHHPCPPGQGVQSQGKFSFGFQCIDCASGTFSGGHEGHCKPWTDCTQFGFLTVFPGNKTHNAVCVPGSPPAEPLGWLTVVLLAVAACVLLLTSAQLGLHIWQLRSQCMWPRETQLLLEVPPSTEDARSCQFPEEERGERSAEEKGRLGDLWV

[2] = target: T4, human GITR (amino acids M1-V241, NCBI …); test: cell-based or functional assay; remark: listed apart in the source
[3] = target: T4, human GITR (amino acids M1-V241, NCBI …); test: cell-based or functional assay; remark: listed apart in the source
[4] = target: T4, human GITR (amino acids M1-V241, NCBI …); test: cell-based or functional assay; remark: listed apart in the source
[5] = target: T4, human GITR (amino acids M1-V241, NCBI …); test: ECL cell binding, hGITR/HEK293-D9
How it was run: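 Cells blocked with 2% BSA, then antibody dilutions from 1.7 pM to 100 nM added 1 h at RT. Bound antibody detected with SULFO-TAG anti-human kappa antibody, electrochemiluminescence read, RLU fitted by four-parameter logistic; signal at 100 nM on hGITR cells versus parental cells also recorded.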

| Binder | Kd (hGITR.mmh) [nM] | koff (hGITR.mmh) [s⁻¹] | kon (hGITR.mmh) [M⁻¹ s⁻¹] | t½ (hGITR.mmh) [min] | Kd (hGITR.mFc) [nM] | koff (hGITR.mFc) [s⁻¹] | kon (hGITR.mFc) [M⁻¹ s⁻¹] | t½ (hGITR.mFc) [min] | Kd (mfGITR.mmh) [nM] | koff (mfGITR.mmh) [s⁻¹] | kon (mfGITR.mmh) [M⁻¹ s⁻¹] | t½ (mfGITR.mmh) [min] | % Activation, NF-kB-Luc, non-anchored [1] [%] | % Blocking, NF-kB-Luc, non-anchored [1] [%] | EC50, hGITR activation, NF-kB-Luc, non-anchored [1] [nM] | IC50, blocking of hGITRL stimulation, NF-kB-Luc, non-anchored [1] [nM] | fold activation, T-cell proliferation, plate-bound Ab 10.6 nM, donor 1 [2] [fold] | fold activation, T-cell proliferation, plate-bound Ab 10.6 nM, donor 2 [2] [fold] | fold activation, T-cell proliferation, plate-bound Ab 10.6 nM, donor 3 [2] [fold] | fold activation, T-cell proliferation, plate-bound Ab 10.6 nM, donor 4 [2] [fold] | also measured |
| --- | --- | --- | --- | --- | --- | --- | --- | --- | --- | --- | --- | --- | --- | --- | --- | --- | --- | --- | --- | --- | --- |
| H4H14525P (antibody, human IgG4, V domains shown, human IgG4 (H4H)) VH: QVQLVESGGGVVQPGRSLRLSCAASGFTFSSYGMHWVRQAPGKGLEWVAVIWYVGSNKYYGESVKGRFTISRDNSKNTLYLQMNSLRDEDTAIYYCARGGQLGSFYYYGMDVWGQGTTVTVSS VL: DIQMTQSPSSLSASVGDRVTITCRASQGIRNDLGWYQQKPGKAPKRLIYDVSSLQSGVPSRFSGSGSGTEFTLTISSLQPEDLATYYCLQHNSYPWTFGQGTKVEIK | 52.4 | 0.0166 | 317000 | 0.7 | 0.427 | 0.000338 | 791000 | 34.2 | 155 | 0.0205 | 133000 | 0.6 | 20 | 70 | 1.1 | 1.4 | 6 | 1 | 1 | 2 | fold activation, T-cell proliferation, plate-bound Ab 10.6 nM, donor 5 [2]: 1 fold; fold activation, T-cell proliferation, plate-bound Ab 10.6 nM, donor 6 [2]: 3 fold; fold activation, T-cell proliferation, plate-bound Ab 10.6 nM, donor 7 [2]: 2 fold; fold activation, T-cell proliferation, plate-bound Ab 10.6 nM, donor 8 [2]: 1 fold; fold activation, T-cell proliferation, plate-bound Ab 10.6 nM, mean [2]: 2 fold; fold activation, T-cell proliferation, 33 nM, FcgR anchored, donor 1 [3]: 1.2 fold; fold activation, T-cell proliferation, 33 nM, FcgR anchored, donor 2 [3]: 0.8 fold; fold activation, T-cell proliferation, 33 nM, FcgR anchored, donor 3 [3]: 1 fold; fold activation, T-cell proliferation, 33 nM, FcgR anchored, donor 4 [3]: 1.5 fold; fold activation, T-cell proliferation, 33 nM, FcgR anchored, donor 5 [3]: 1.5 fold; fold activation, T-cell proliferation, 33 nM, FcgR anchored, mean [3]: 1.2 fold; fold activation, T-cell proliferation, 22 nM, non-anchored, donor 1 [4]: 0.7 fold; fold activation, T-cell proliferation, 22 nM, non-anchored, donor 2 [4]: 1 fold; fold activation, T-cell proliferation, 22 nM, non-anchored, donor 3 [4]: 0.9 fold; fold activation, T-cell proliferation, 22 nM, non-anchored, donor 4 [4]: 1 fold; fold activation, T-cell proliferation, 22 nM, non-anchored, mean [4]: 0.9 fold; Average Signal (RLU) at 100 nM [5]: 8840 RLU; EC50 [5]: 0.6 nM |
| H4H14469P (antibody, human IgG4, V domains shown, human IgG4 (H4H)) VH: QVQLVESGGGVVQPGGSLRLSCAVSGFTFSDYGMHWVRQVPGAGLEWVAVIYYEGSNKYYADSVKGRFTISRDNSKNTLYLQMNSLRVEDTSMYFCARGPLLGGNFYSYLMDVWGQGTTVTVSS VL: AIQMTQSPSSLSASVGDRVTITCRASQGIRNGLGWYQQKPGKAPKLLIYTASSLQSGVPSRFSGSGSGTDFTLTISSLQPEDFATYYCLQDYNYPFSFGPGTKVDIK | 43 | 0.0122 | 284000 | 0.9 | 0.335 | 0.000401 | 1.2e+06 | 28.8 | 41.1 | 0.00243 | 59100 | 4.7 | 50 | 90 | 2.3 | 0.7 | 3 | 12 | 12 | 15 | fold activation, T-cell proliferation, plate-bound Ab 10.6 nM, donor 5 [2]: 12 fold; fold activation, T-cell proliferation, plate-bound Ab 10.6 nM, donor 6 [2]: 17 fold; fold activation, T-cell proliferation, plate-bound Ab 10.6 nM, donor 7 [2]: 11 fold; fold activation, T-cell proliferation, plate-bound Ab 10.6 nM, donor 8 [2]: 11 fold; fold activation, T-cell proliferation, plate-bound Ab 10.6 nM, mean [2]: 12 fold; fold activation, T-cell proliferation, 33 nM, FcgR anchored, donor 1 [3]: 0.7 fold; fold activation, T-cell proliferation, 33 nM, FcgR anchored, donor 2 [3]: 1 fold; fold activation, T-cell proliferation, 33 nM, FcgR anchored, donor 3 [3]: 0.9 fold; fold activation, T-cell proliferation, 33 nM, FcgR anchored, donor 4 [3]: 1.5 fold; fold activation, T-cell proliferation, 33 nM, FcgR anchored, donor 5 [3]: 1.5 fold; fold activation, T-cell proliferation, 33 nM, FcgR anchored, mean [3]: 1.1 fold; fold activation, T-cell proliferation, 22 nM, non-anchored, donor 1 [4]: 0.9 fold; fold activation, T-cell proliferation, 22 nM, non-anchored, donor 2 [4]: 0.8 fold; fold activation, T-cell proliferation, 22 nM, non-anchored, donor 3 [4]: 1 fold; fold activation, T-cell proliferation, 22 nM, non-anchored, donor 4 [4]: 0.9 fold; fold activation, T-cell proliferation, 22 nM, non-anchored, mean [4]: 0.9 fold; Average Signal (RLU) at 100 nM [5]: 5230 RLU; EC50 [5]: 0.23 nM |
| H4H14532P2 (antibody, human IgG4, V domains shown, human IgG4 (H4H)) VH: QVQLVESGGGVVQPGRSLRLSCSASGFTLSNFVMHWVRQAPGKGLEWVAVILYDGSNKYYADSVKGRFTISRDNSNNRLYLQMNSLRAEDTALYYCARGESLGSPIYYYYGLDVWGQGTTVTVSS VL: not shown | 18.5 | 0.00645 | 348000 | 1.8 | 0.373 | 0.000269 | 720000 | 42.9 | 24.9 | 0.00648 | 260000 | 1.8 | 30 | 90 | 1.2 | 1 | 2 | 6 | 6 | 12 | fold activation, T-cell proliferation, plate-bound Ab 10.6 nM, donor 5 [2]: 6 fold; fold activation, T-cell proliferation, plate-bound Ab 10.6 nM, donor 6 [2]: 19 fold; fold activation, T-cell proliferation, plate-bound Ab 10.6 nM, donor 7 [2]: 7 fold; fold activation, T-cell proliferation, plate-bound Ab 10.6 nM, donor 8 [2]: 2 fold; fold activation, T-cell proliferation, plate-bound Ab 10.6 nM, mean [2]: 8 fold; fold activation, T-cell proliferation, 33 nM, FcgR anchored, donor 1 [3]: 0.8 fold; fold activation, T-cell proliferation, 33 nM, FcgR anchored, donor 2 [3]: 0.9 fold; fold activation, T-cell proliferation, 33 nM, FcgR anchored, donor 3 [3]: 1 fold; fold activation, T-cell proliferation, 33 nM, FcgR anchored, donor 4 [3]: 1.7 fold; fold activation, T-cell proliferation, 33 nM, FcgR anchored, donor 5 [3]: 2.1 fold; fold activation, T-cell proliferation, 33 nM, FcgR anchored, mean [3]: 1.3 fold; fold activation, T-cell proliferation, 22 nM, non-anchored, donor 1 [4]: 0.7 fold; fold activation, T-cell proliferation, 22 nM, non-anchored, donor 2 [4]: 0.8 fold; fold activation, T-cell proliferation, 22 nM, non-anchored, donor 3 [4]: 1 fold; fold activation, T-cell proliferation, 22 nM, non-anchored, donor 4 [4]: 1.1 fold; fold activation, T-cell proliferation, 22 nM, non-anchored, mean [4]: 0.9 fold; Average Signal (RLU) at 100 nM [5]: 5740 RLU; EC50 [5]: 0.43 nM |
